Target: T1, soluble human GPC3 (human, UniProt P51654 25-563, limits assumed)
T1 construct: soluble human GPC3 as analyte; also called glypican 3
Test: SPR (Biacore), soluble human GPC3

T1 sequence (P51654 other isoform, or with tags, fused parts or gaps limits assumed, form in doubt): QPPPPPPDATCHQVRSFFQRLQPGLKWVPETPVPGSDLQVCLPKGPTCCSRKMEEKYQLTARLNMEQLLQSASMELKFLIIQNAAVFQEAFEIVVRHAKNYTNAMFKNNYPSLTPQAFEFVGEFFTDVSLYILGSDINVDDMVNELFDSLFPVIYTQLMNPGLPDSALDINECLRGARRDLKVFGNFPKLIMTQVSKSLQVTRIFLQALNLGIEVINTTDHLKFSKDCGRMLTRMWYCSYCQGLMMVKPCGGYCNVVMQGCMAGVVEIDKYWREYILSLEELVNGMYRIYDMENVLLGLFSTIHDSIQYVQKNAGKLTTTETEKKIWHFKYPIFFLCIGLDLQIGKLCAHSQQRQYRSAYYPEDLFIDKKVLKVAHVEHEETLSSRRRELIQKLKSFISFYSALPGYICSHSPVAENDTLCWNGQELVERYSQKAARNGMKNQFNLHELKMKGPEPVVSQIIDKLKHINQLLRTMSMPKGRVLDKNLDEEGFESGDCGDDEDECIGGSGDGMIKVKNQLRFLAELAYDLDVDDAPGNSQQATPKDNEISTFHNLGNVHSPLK

| Binder | Kd [nM] |
| --- | --- |
| H0610-G1dh/none-Hi-Kn010G3/L0151-k0 (antibody, human IgG1, kappa, single-arm (one Fab)) heavy: not shown EPKSSDKTHTCPPCPAPELLGGPSVFLFPPKPKDTLMISRTPEVTCVVVDVSHEDPEVKFNWYVDGVEVHNAKTKPREEQYNSTYRVVSVLTVLHQDWLNGKEYKCKVSNKALPAPIEKTISKAKGQPREPQVCTLPPSRDELTKNQVSLWCLVKGFYPSDIAVEWESNGQPENNYKTTPPVLDSDGSFFLYSKLTVDKSRWQQGNVFSCSVMHEALHNRYTQKSLSLSP light: DIVMTQSPLSLPVTPGEPASISCRSSQSLVHSNRNTYLHWYQQKPGQAPRLLIYKVSNRFSGVPDRFSGSGSGTDFTLKISRVEAEDVGVYYCEQGTQVPYTFGQGTKLEIKRTVAAPSVFIFPPSDEQLKSGTASVVCLLNNFYPREAKVQWKVDNALQSGNSQESVTEQDSKDSTYSLSSTLTLSKADYEKHKVYACEVTHQGLSSPVTKSFNRGEC | 1.25 |
| H0610-G1dh/none-Hi-Kn010G3/L0152-k0 (antibody, human IgG1, kappa, single-arm (one Fab)) heavy: not shown EPKSSDKTHTCPPCPAPELLGGPSVFLFPPKPKDTLMISRTPEVTCVVVDVSHEDPEVKFNWYVDGVEVHNAKTKPREEQYNSTYRVVSVLTVLHQDWLNGKEYKCKVSNKALPAPIEKTISKAKGQPREPQVCTLPPSRDELTKNQVSLWCLVKGFYPSDIAVEWESNGQPENNYKTTPPVLDSDGSFFLYSKLTVDKSRWQQGNVFSCSVMHEALHNRYTQKSLSLSP light: DIVMTQSPLSLPVTPGEPASISCRSSQSLVHSNRNTYLHWYQQKPGQAPRLLIYKVSNRFSGVPDRFSGSGSGTDFTLKISRVEAEDVGVYYCFQGTQVPYTFGQGTKLEIKRTVAAPSVFIFPPSDEQLKSGTASVVCLLNNFYPREAKVQWKVDNALQSGNSQESVTEQDSKDSTYSLSSTLTLSKADYEKHKVYACEVTHQGLSSPVTKSFNRGEC | 2.36 |
| H0610-G1dh/none-Hi-Kn010G3/L0154-k0 (antibody, human IgG1, kappa, single-arm (one Fab)) heavy: not shown EPKSSDKTHTCPPCPAPELLGGPSVFLFPPKPKDTLMISRTPEVTCVVVDVSHEDPEVKFNWYVDGVEVHNAKTKPREEQYNSTYRVVSVLTVLHQDWLNGKEYKCKVSNKALPAPIEKTISKAKGQPREPQVCTLPPSRDELTKNQVSLWCLVKGFYPSDIAVEWESNGQPENNYKTTPPVLDSDGSFFLYSKLTVDKSRWQQGNVFSCSVMHEALHNRYTQKSLSLSP light: DIVMTQSPLSLPVTPGEPASISCRSSQSLVHSNRNTYLHWYQQKPGQAPRLLIYKVSNRFSGVPDRFSGSGSGTDFTLKISRVEAEDVGVYYCIQGTQVPYTFGQGTKLEIKRTVAAPSVFIFPPSDEQLKSGTASVVCLLNNFYPREAKVQWKVDNALQSGNSQESVTEQDSKDSTYSLSSTLTLSKADYEKHKVYACEVTHQGLSSPVTKSFNRGEC | 1.01 |
| H0610-G1dh/none-Hi-Kn010G3/L0155-k0 (antibody, human IgG1, kappa, single-arm (one Fab)) heavy: not shown EPKSSDKTHTCPPCPAPELLGGPSVFLFPPKPKDTLMISRTPEVTCVVVDVSHEDPEVKFNWYVDGVEVHNAKTKPREEQYNSTYRVVSVLTVLHQDWLNGKEYKCKVSNKALPAPIEKTISKAKGQPREPQVCTLPPSRDELTKNQVSLWCLVKGFYPSDIAVEWESNGQPENNYKTTPPVLDSDGSFFLYSKLTVDKSRWQQGNVFSCSVMHEALHNRYTQKSLSLSP light: DIVMTQSPLSLPVTPGEPASISCRSSQSLVHSNRNTYLHWYQQKPGQAPRLLIYKVSNRFSGVPDRFSGSGSGTDFTLKISRVEAEDVGVYYCLQGTQVPYTFGQGTKLEIKRTVAAPSVFIFPPSDEQLKSGTASVVCLLNNFYPREAKVQWKVDNALQSGNSQESVTEQDSKDSTYSLSSTLTLSKADYEKHKVYACEVTHQGLSSPVTKSFNRGEC | 1.28 |
| H0610-G1dh/none-Hi-Kn010G3/L0160-k0 (antibody, human IgG1, kappa, single-arm (one Fab)) heavy: not shown EPKSSDKTHTCPPCPAPELLGGPSVFLFPPKPKDTLMISRTPEVTCVVVDVSHEDPEVKFNWYVDGVEVHNAKTKPREEQYNSTYRVVSVLTVLHQDWLNGKEYKCKVSNKALPAPIEKTISKAKGQPREPQVCTLPPSRDELTKNQVSLWCLVKGFYPSDIAVEWESNGQPENNYKTTPPVLDSDGSFFLYSKLTVDKSRWQQGNVFSCSVMHEALHNRYTQKSLSLSP light: DIVMTQSPLSLPVTPGEPASISCRSSQSLVHSNRNTYLHWYQQKPGQAPRLLIYKVSNRFSGVPDRFSGSGSGTDFTLKISRVEAEDVGVYYCTQGTQVPYTFGQGTKLEIKRTVAAPSVFIFPPSDEQLKSGTASVVCLLNNFYPREAKVQWKVDNALQSGNSQESVTEQDSKDSTYSLSSTLTLSKADYEKHKVYACEVTHQGLSSPVTKSFNRGEC | 2.12 |

Next, values leading:

| Kd [nM] | Binder |
| --- | --- |
| 0.973 | H0610-G1dh/none-Hi-Kn010G3/L0161-k0 (antibody, human IgG1, kappa, single-arm (one Fab)) heavy: not shown EPKSSDKTHTCPPCPAPELLGGPSVFLFPPKPKDTLMISRTPEVTCVVVDVSHEDPEVKFNWYVDGVEVHNAKTKPREEQYNSTYRVVSVLTVLHQDWLNGKEYKCKVSNKALPAPIEKTISKAKGQPREPQVCTLPPSRDELTKNQVSLWCLVKGFYPSDIAVEWESNGQPENNYKTTPPVLDSDGSFFLYSKLTVDKSRWQQGNVFSCSVMHEALHNRYTQKSLSLSP light: DIVMTQSPLSLPVTPGEPASISCRSSQSLVHSNRNTYLHWYQQKPGQAPRLLIYKVSNRFSGVPDRFSGSGSGTDFTLKISRVEAEDVGVYYCVQGTQVPYTFGQGTKLEIKRTVAAPSVFIFPPSDEQLKSGTASVVCLLNNFYPREAKVQWKVDNALQSGNSQESVTEQDSKDSTYSLSSTLTLSKADYEKHKVYACEVTHQGLSSPVTKSFNRGEC |
| 2.6 | H0610-G1dh/none-Hi-Kn010G3/L0157-k0 (antibody, human IgG1, kappa, single-arm (one Fab)) heavy: not shown EPKSSDKTHTCPPCPAPELLGGPSVFLFPPKPKDTLMISRTPEVTCVVVDVSHEDPEVKFNWYVDGVEVHNAKTKPREEQYNSTYRVVSVLTVLHQDWLNGKEYKCKVSNKALPAPIEKTISKAKGQPREPQVCTLPPSRDELTKNQVSLWCLVKGFYPSDIAVEWESNGQPENNYKTTPPVLDSDGSFFLYSKLTVDKSRWQQGNVFSCSVMHEALHNRYTQKSLSLSP light: DIVMTQSPLSLPVTPGEPASISCRSSQSLVHSNRNTYLHWYQQKPGQAPRLLIYKVSNRFSGVPDRFSGSGSGTDFTLKISRVEAEDVGVYYCNQGTQVPYTFGQGTKLEIKRTVAAPSVFIFPPSDEQLKSGTASVVCLLNNFYPREAKVQWKVDNALQSGNSQESVTEQDSKDSTYSLSSTLTLSKADYEKHKVYACEVTHQGLSSPVTKSFNRGEC |
| 0.211 | H0610-G1dh/none-Hi-Kn010G3/L0167-k0 (antibody, human IgG1, kappa, single-arm (one Fab)) heavy: not shown EPKSSDKTHTCPPCPAPELLGGPSVFLFPPKPKDTLMISRTPEVTCVVVDVSHEDPEVKFNWYVDGVEVHNAKTKPREEQYNSTYRVVSVLTVLHQDWLNGKEYKCKVSNKALPAPIEKTISKAKGQPREPQVCTLPPSRDELTKNQVSLWCLVKGFYPSDIAVEWESNGQPENNYKTTPPVLDSDGSFFLYSKLTVDKSRWQQGNVFSCSVMHEALHNRYTQKSLSLSP light: DIVMTQSPLSLPVTPGEPASISCRSSQSLVHSNRNTYLHWYQQKPGQAPRLLIYKVSNRFSGVPDRFSGSGSGTDFTLKISRVEAEDVGVYYCGQSTQVPYTFGQGTKLEIKRTVAAPSVFIFPPSDEQLKSGTASVVCLLNNFYPREAKVQWKVDNALQSGNSQESVTEQDSKDSTYSLSSTLTLSKADYEKHKVYACEVTHQGLSSPVTKSFNRGEC |
| 3.38 | H0610-G1dh/none-Hi-Kn010G3/L0163-k0 (antibody, human IgG1, kappa, single-arm (one Fab)) heavy: not shown EPKSSDKTHTCPPCPAPELLGGPSVFLFPPKPKDTLMISRTPEVTCVVVDVSHEDPEVKFNWYVDGVEVHNAKTKPREEQYNSTYRVVSVLTVLHQDWLNGKEYKCKVSNKALPAPIEKTISKAKGQPREPQVCTLPPSRDELTKNQVSLWCLVKGFYPSDIAVEWESNGQPENNYKTTPPVLDSDGSFFLYSKLTVDKSRWQQGNVFSCSVMHEALHNRYTQKSLSLSP light: DIVMTQSPLSLPVTPGEPASISCRSSQSLVHSNRNTYLHWYQQKPGQAPRLLIYKVSNRFSGVPDRFSGSGSGTDFTLKISRVEAEDVGVYYCYQGTQVPYTFGQGTKLEIKRTVAAPSVFIFPPSDEQLKSGTASVVCLLNNFYPREAKVQWKVDNALQSGNSQESVTEQDSKDSTYSLSSTLTLSKADYEKHKVYACEVTHQGLSSPVTKSFNRGEC |

Reference: US20210388110A1 (published 2021)
